Columns and labels:
[1] = target: T1, purified human activated C1s protein, two-chain form (Homo sapiens, UniProt P09871 16-688); assay: kinetic binding measurement, method not stated; lower end of the printed KD range, native human C1s
T1 construct: Also used here for C1s acting in human serum assays; also called human C1s; active C1s
T1 sequence: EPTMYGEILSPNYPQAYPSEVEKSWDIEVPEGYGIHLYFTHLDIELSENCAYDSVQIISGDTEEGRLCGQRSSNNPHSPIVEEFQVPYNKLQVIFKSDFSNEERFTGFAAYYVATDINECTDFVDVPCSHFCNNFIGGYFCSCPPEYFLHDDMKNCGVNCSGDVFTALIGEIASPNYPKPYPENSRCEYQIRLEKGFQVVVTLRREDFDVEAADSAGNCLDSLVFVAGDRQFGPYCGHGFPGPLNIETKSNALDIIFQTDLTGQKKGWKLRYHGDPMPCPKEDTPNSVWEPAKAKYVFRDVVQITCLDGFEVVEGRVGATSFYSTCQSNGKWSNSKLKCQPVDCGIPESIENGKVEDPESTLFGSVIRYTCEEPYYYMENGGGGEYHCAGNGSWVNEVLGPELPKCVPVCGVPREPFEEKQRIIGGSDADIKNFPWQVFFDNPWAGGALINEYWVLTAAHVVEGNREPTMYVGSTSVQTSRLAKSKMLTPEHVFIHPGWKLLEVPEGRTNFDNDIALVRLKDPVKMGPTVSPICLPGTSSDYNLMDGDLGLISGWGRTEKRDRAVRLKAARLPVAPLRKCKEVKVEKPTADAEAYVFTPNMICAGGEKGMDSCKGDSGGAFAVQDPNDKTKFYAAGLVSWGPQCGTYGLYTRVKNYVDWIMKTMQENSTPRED

[2] = target: T1, purified human activated C1s protein, …; assay: ELISA, target proteins immobilized on micro-titer plates
Procedure: (§1) To determine whether IPN003 could bind other components of the complement cascade, ELISA assays were performed with target proteins immobilized on micro-titer plates.

[3] = target: T2, C2; assay: as above
T2 construct: member of group m5; also called complement C2
T2 chain: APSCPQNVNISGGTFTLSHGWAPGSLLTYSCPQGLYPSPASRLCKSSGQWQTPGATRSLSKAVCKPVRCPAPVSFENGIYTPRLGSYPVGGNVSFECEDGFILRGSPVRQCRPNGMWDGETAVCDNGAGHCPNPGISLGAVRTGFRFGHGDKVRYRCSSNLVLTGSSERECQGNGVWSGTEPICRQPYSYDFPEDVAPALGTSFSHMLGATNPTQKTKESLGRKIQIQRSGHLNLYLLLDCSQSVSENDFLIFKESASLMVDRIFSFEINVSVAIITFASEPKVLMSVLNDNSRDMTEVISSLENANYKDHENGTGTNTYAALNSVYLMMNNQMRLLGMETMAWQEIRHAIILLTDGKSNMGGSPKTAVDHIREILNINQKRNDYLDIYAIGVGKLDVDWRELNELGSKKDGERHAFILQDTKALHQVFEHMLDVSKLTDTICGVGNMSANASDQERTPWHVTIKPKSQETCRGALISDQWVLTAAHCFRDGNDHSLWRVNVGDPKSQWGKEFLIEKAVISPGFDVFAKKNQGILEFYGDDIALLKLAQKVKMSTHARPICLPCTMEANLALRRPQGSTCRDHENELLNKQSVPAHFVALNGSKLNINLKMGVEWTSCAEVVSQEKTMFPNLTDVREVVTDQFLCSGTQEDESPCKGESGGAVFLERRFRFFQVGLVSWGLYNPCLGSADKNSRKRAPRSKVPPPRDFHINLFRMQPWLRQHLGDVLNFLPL
Procedure: as §1

[4] = target: T3, C1r; assay: as above
T3 construct: member of group m5; also called complement C1r
T3 chain: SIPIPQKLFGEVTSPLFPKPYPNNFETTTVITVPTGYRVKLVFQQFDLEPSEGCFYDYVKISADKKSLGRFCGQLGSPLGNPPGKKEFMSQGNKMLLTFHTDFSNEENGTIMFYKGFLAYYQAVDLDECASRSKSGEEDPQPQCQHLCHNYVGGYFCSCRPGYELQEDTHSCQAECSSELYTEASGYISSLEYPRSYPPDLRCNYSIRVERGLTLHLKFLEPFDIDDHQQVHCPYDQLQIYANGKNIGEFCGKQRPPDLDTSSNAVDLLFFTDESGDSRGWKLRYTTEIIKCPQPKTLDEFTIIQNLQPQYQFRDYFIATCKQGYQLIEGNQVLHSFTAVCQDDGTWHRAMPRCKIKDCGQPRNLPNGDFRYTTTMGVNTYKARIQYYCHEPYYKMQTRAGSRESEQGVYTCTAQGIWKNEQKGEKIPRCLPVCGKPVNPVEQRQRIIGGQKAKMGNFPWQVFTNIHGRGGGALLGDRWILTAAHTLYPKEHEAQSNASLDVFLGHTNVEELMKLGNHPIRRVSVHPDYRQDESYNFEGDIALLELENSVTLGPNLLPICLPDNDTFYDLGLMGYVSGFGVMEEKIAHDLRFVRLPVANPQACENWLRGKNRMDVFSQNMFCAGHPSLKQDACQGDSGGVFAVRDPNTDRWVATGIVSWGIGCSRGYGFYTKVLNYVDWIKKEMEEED
Procedure: as §1

[5] = target: T1, purified human activated C1s protein, …; assay: kinetic binding measurement, method not stated; kinetic measurement, native human C1s
[6] = target: T4, purified rat C1s (rat, UniProt Q6P6T1 16-688, limits assumed); assay: ELISA, purified rat C1s immobilized on micro-titer plates, increasing dilutions of antibody
T4 construct: also called rat complement C1s protein
T4 sequence (looked up): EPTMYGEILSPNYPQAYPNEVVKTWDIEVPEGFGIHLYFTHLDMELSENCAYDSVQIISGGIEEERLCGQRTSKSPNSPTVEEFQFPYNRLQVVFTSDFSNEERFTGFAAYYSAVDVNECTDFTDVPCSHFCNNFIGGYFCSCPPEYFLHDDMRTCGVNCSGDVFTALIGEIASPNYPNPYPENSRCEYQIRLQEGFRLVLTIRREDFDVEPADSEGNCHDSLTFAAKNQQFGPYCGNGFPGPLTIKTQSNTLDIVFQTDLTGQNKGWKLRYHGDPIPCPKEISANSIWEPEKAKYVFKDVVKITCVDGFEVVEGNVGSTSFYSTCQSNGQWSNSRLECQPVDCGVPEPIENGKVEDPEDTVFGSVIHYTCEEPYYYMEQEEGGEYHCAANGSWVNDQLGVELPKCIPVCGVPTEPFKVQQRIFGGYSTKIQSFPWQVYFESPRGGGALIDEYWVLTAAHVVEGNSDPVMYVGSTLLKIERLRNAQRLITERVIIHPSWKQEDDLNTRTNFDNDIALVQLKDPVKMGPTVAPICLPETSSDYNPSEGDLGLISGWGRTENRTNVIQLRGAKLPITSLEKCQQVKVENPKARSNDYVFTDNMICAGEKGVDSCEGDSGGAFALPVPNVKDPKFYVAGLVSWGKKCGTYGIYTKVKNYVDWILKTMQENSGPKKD
Procedure: ELISA assays were performed with purified rat C1s immobilized on micro-titer plates and increasing dilutions of IPN003 or M81.

[7] = target: T1, purified human activated C1s protein, …; assay: kinetic binding measurement, method not stated; Table 4, Active-C1s
[8] = target: T1, purified human activated C1s protein, …; assay: competition ELISA, plate-coated human C1s; competitor biotin-labeled M81 at 0.5E-9 M; competition with biotin-labeled M81 (0.5E-9 M), plate-coated native human C1s
Procedure: To determine if IPN003 could compete binding of M81 to human C1s, competition assays were performed, in which biotin-labeled M81 (final concentration 0.5E-9 M) was incubated with increasing concentrations of unlabeled antibodies in wells coated with human C1s.

[9] = target: T5, Inactive-C1s (Homo sapiens, UniProt P09871); assay: kinetic binding measurement, method not stated; Table 4, Inactive-C1s
T5 construct: proenzyme (pro-C1s); also called pro-C1s
T5 sequence (single chain, looked up): T1 sequence

B1: Anti-C1s monoclonal antibody IPN003 (antibody, V domains shown)
VH: EVMLVESGGALVKPGGSLKLSCAASGFTFSNYAMSWVRQIPEKRLEWVATISSGGSHTYYLDSVKGRFTISRDNARDTLYLQMSSLRSEDTALYYCARLFTGYAMDYWGQGTSVTVSS
VL: QIVLTQSPAIMSASLGERVTMTCTASSSVSSSYLHWYQQKPGSSPKLWIYSTSNLASGVPARFSGSGSGTFYSLTISSMEAEDDATYYCHQYYRLPPITFGAGTKLELK
notes: Mouse monoclonal antibody from an NZBW hybridoma; Biotin-labeled in some assays; also called IPN-M34; M34
- Kd [1]: 1.58 to 2.04 nM
- EC50 (read off the curve) [2]: ~300 pM
- binding result [3]: no binding (tested: about 2e-7 M)
- binding result [4]: no binding (tested: about 2e-7 M)
- koff [5]: 0.000553 s⁻¹
- kon [5]: 356000 M⁻¹ s⁻¹
- Kd [6]: 0.2 nM
- Kd [7]: 2.04 nM
- koff [7]: 0.000658 s⁻¹
- kon [7]: 323000 M⁻¹ s⁻¹
- IC50 [8]: 0.33 nM
- Kd [9]: 1.58 nM
- koff [9]: 0.000553 s⁻¹
- kon [9]: 356000 M⁻¹ s⁻¹

— US20150104448A1 (TRUE NORTH THERAPEUTICS, published 2015)
